# In the supplement of paper PMC12764529:
# ± gives the half width of the 95% confidence interval.
# Experiment: folding stability dG unfold from trypsin proteolysis; higher = more stable
# Summary of the method: (§1)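 Sequencing followed digestion of designed mini-proteins with trypsin and chymotrypsin, each at 11 concentrations in threefold dilutions together with a no-protease condition. The mini-proteins were under 80 residues, had no cysteine, sat in a PA-tagged cDNA display construct, and were kept only if AlphaFold2 dimer inter-PAE was above 15. From the counts, Bayesian fitting gave K50, and unfolding free energy was derived against a sequence-predicted unfolded-state K50 and a shared folded-state K50, per protease or combined.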
row,Sequence,folding stability dG unfold
1,SAGSEEEKKAIAEELKEKILKERPELQKKEYTVEVEITPLPDDSIRITVTVTLPSGETETREYVYPNKSAGG [r19_194_JUSTAS],2.71 ± 0.26 kcal/mol
2,SAGGSAGGSAPTSSVVTFPYESPEEARERARELAEEERARRGVRFRVEYDPATGTVTLTAVESAGGSAGGSA [r18_368_JUSTAS],0.673 ± 0.064 kcal/mol
3,SAGGSAGGSMTVERNVTSEEEAEEWREEIEKELGVKVEEVIREETEEGDLRVKFVIEIPEDLKSAGGSAGGS [r12_577_JUSTAS],0.37 ± 0.069 kcal/mol
4,SAGGSAGGSAGMKVELSVAPDPATGEPVLLFHFEDFTLALNPNTGAIGVYLKDEVELFELSAGGSAGGSAGG [r17_544_TrMRF],2 ± 0.13 kcal/mol
5,SAGGSAGGSAGGSTKTYNAEIDNPNGPKITIPIEYRNEDGESDFEEKAKKFAEEYAKKYSAGGSAGGSAGGS [r4_168_TrMRF],-0.886 ± 0.46 kcal/mol
6,SAGEKKKVVIVVHIHIEAESEEDREKALEEARKLAEELARELKEKLGLPEDVKEVVVIVHIHPRSEEEKSAG [r5_436_TrROS_Hall],2.01 ± 0.086 kcal/mol
7,SAGGSAGGSIVFRSPEQAKEWLDNFPPGNEVNIHVQGPDTGQPQEFEIKIPPPKPEYDPDGKPSAGGSAGGS [r12_393_TrROS],-0.124 ± 0.088 kcal/mol
8,SAGKVKATYDPKTGTLTITFNVKKNEKINVKANIKIPEYNATVEKVETNGAKKDNEPVTVKIKLKNLKKSAG [r5_737_TrMRF],1.06 ± 0.076 kcal/mol
9,SAGGSMIELTLTSTVPDGTPASTVPPEVAREQALAYAEAQGLTVVEIRVEFDPEAGTITIPVVTALSAGGSA [r2_237_JUSTAS],1.38 ± 0.042 kcal/mol
10,SAGGMIIIEGMSEEEIKNLIKEAIKKGEKVKKIVIRVNGKLYLITVDAKTKKITVEEIPLEELKKKKSAGGS [r16_481_TrROS_Hall],0.692 ± 0.095 kcal/mol
11,SATETLTVVETRTVRDPAVPGTTTTETRVTEVTRPAPPPPPLSAEELARALAEAGLLERTDDGELKVVLSAG [r14_582_TrROS_Hall],-0.559 ± 0.25 kcal/mol
12,SAGGSAGGSKKAEELAKKLGLEVEIVKVEKKKDGSEVVIVKIKNKDGSELTLVVKDGKVELFPSAGGSAGGS [r12_279_TrROS_Hall],1.79 ± 0.081 kcal/mol
13,SAMVSVTELPDGGVLATFPLPDGHPATAVFDPADLKPSVAYFPNGLRAVLRVTPDGRVELLAVEDVPPASAG [r14_877_TrMRF],0.892 ± 0.023 kcal/mol
14,SAGGSARWFLIRIEFVFGGEPRTFSVLIDVDPGEIEIEIPPELQKKGFQIKDIEIWPLPPEDLKKLSAGGSA [r15_853_TrROS],2.22 ± 0.04 kcal/mol
15,SAGGSAVPAEAKKKVFLKPVKVNIPLPGNYEIVEIDPKTGKIVIKVPGSSKTLVVDLKSGKVYEFGSAGGSA [r15_452_TrMRF],1.19 ± 0.061 kcal/mol
16,SAGGSAGGSTVTIEIPGFKTPEEIAKAIAEKTGKKVKEVKVEKDKKNKTYTITVTVDGKEITFSAGGSAGGS [r12_935_TrROS_Hall],0.333 ± 0.082 kcal/mol
17,SAGGSAGGSDIPIEIVDVEHTDNMISVIIKGPDGNYFVINFQFNPGNGKFNVNISIIPPEDLKSAGGSAGGS [r20_70_TrROS],2.07 ± 0.21 kcal/mol
18,SAGKKLFIKVKIRVKKKVKLKDGKTVEKEKELTLLIEAESEEEALEAAKKLAEELGLEIEKVEIFKAPSAGG [r19_176_TrROS_Hall],2.41 ± 0.15 kcal/mol
19,SAGGSAGGSAGGGKSITKVYTLPNGGKAVAVYNPETGKVEVYFFKPNGKLLEKKTFKAKSAGGSAGGSAGGS [r10_1044_TrMRF],2.18 ± 0.068 kcal/mol
20,SAGGSAGGSAMIVTEEGNTITITTLTNLTFPTTGATSTATTTTTITLPPTPLFPVPRTDNSLSAGGSAGGSA [r18_501_JUSTAS],-0.21 ± 0.11 kcal/mol
21,SAMYVRITVTFETPDGTRTVTIEIPPSEVEAGKPLSEEELKALAEEIAAKDPNATITEITIERFPESLESAG [r14_373_JUSTAS],4.29 ± 0.11 kcal/mol

row,Sequence,folding stability dG unfold
1,SAGGKYKIEIEITEIKEKEDGTKEITIKIKIYDEETGELIYTITVKMRIDKKTNKIIIEEVKIEKLPPSAGG [r13_596_TrROS_Hall],4.22 ± 0.29 kcal/mol
2,SAGGSAGGSAGGKIKPGQTVIFIELKITKQRDGPDGKRYMEFEIERIDIFRIPPGDNILSAGGSAGGSAGGS [r10_826_TrROS],2.55 ± 0.068 kcal/mol
3,SAGGSTTVTIETYESEKFPNGSFKTSTKKIVITNTLSPDEELTLPNGKKIPASLSAEEIAEAILKSESAGGS [r16_440_JUSTAS],-0.849 ± 0.23 kcal/mol
4,SMEEIAKEIAEKAGVNWENVEFKVEEKEDPETGEKYLIAHVVIKLPNEKYIAVIDLRDKKILEIWKLEDISA [r9_1219_TrMRF],2.91 ± 0.11 kcal/mol
5,SAGDDLKIKKVEIQINPEHGYISVTFRIDGYEVQIMYDVDPKNGPITMDIYYPGKPIGEFTIPLNDIKISAG [r5_415_TrROS],1.78 ± 0.083 kcal/mol
6,SAGGSAGGSAGGPLKEAVEAAVASGAPEAEYLLVTPEGELRVTVKVYPEEGKVEVEVSPLSAGGSAGGSAGG [r17_475_TrMRF],0.903 ± 0.018 kcal/mol
7,SAGGSAGGSAMKTIPVKTKEEAEKLAEELKASGYGEVKKTKSGNIIVKAPDGIDVKIVVPEKSAGGSAGGSA [r18_126_JUSTAS],0.098 ± 0.068 kcal/mol
8,SAPLEQLLEFAEEFAQAYGYRVEIEVYRNGEPKGTYEIPMPKPGQPPVSIMIRIPDPNLYIHVTIYMPRSAG [r14_728_TrROS],2.16 ± 0.071 kcal/mol
9,SASPELRKLAEEAAERLVKELGVEKLEFTFTAPVLRPVYTYDPGGNKTPRLEEEIVTYSVTAVVPPEAASAG [r14_232_TrMRF],-0.0655 ± 0.14 kcal/mol
10,TWTFTIMIPIKPEIREALDSGKPLPIEELVDWIKDEIARMFGFKDVTVKGIEIHPDPNGEIMVMVTIEFKPS [r1_290_TrROS],4.29 ± 0.28 kcal/mol
11,SAGGSAGGWIEIDPETGTIEIWMPPNDIEPLVDEIAEELGWKVKVKVEPNPEGWVRHTITIPPKSAGGSAGG [r6_419_TrROS],-0.109 ± 0.087 kcal/mol
12,SAGGIVVGEEGVVRITGPGEPVIIPLPENSEVVEIDVPDDGYVRITLRVDGKTVTVDFPSAPPGLTLSAGGS [r16_635_TrMRF],1.34 ± 0.038 kcal/mol
13,SAGGSMTTITLTLEFELDENGEVDPEKIEAEAEKIKEENPEIKELTVEVKRDPNSNKITVTVTAKVPSAGGS [r8_258_JUSTAS],2.79 ± 0.2 kcal/mol
14,SAPQIVEVKEYDPVSKTYTILAETPEGPLTVPVPAGGDTTVEEAIEQVKEYFEKTLPPGVELEIEKILLSAG [r14_422_JUSTAS],0.355 ± 0.08 kcal/mol
15,SAGGSAGGSAMEIEIEIEIPVPVPGGVPSPENPEVAEERAEEIKEKYAKEGLKVKVKITVVSAGGSAGGSAG [r3_258_JUSTAS],1.22 ± 0.21 kcal/mol
16,SAGKIKIEVEYLDPNGDWRRYEHTIPFKPNQSFEEAINELLPPGLREIKITEVDPEEGTIKIDIWIRPDSAG [r5_227_TrROS],2.12 ± 0.13 kcal/mol
17,SAGGSAGGSAGGWYRIEIEFGNKPREYVVPGAPPDEAADMLQDPGIKNVKVEPLPPEQLKSAGGSAGGSAGG [r7_502_TrROS],-0.817 ± 0.65 kcal/mol
18,SAGGSASSYGIEIEFSEDPNSKTKKITITVTRPDGTVETVTITNPDITDEEAKKIGEELANEVANSSAGGSA [r15_526_JUSTAS],2.19 ± 0.055 kcal/mol
19,SAGFEARVLEVVDLGDRRVALFELRDPEEGRYLLAVAVYDPETGLARVELWDPTDGRLVATPVVPVLPLSAG [r5_440_TrMRF],1.72 ± 0.027 kcal/mol
20,SAKKIKIKEITITVEKNKDGSYTITITVDGKKIAELTFKTPEEAEKAAEELAKELAKKLNVDKIEIKPTSAG [r14_791_TrROS_Hall],1.5 ± 0.18 kcal/mol
21,SAGGSPIIRVKVTYYPPDGSVTVYLPADSVDELIDALNSVPDIPVTPTDGDTIIASTPDAIVEITVESSAGG [r13_143_TrMRF],0.471 ± 0.031 kcal/mol

# Experiment: folding stability dG unfold (combined trypsin and chymotrypsin); higher = more stable
# Summary of the method: as §1
row,Sequence,folding stability dG unfold
1,SAGSEEEKKAIAEELKEKILKERPELQKKEYTVEVEITPLPDDSIRITVTVTLPSGETETREYVYPNKSAGG [r19_194_JUSTAS],3 ± 0.24 kcal/mol
2,SAGGSAGGSAPTSSVVTFPYESPEEARERARELAEEERARRGVRFRVEYDPATGTVTLTAVESAGGSAGGSA [r18_368_JUSTAS],0.859 ± 0.13 kcal/mol
3,SAGGSAGGSMTVERNVTSEEEAEEWREEIEKELGVKVEEVIREETEEGDLRVKFVIEIPEDLKSAGGSAGGS [r12_577_JUSTAS],0.0537 ± 0.18 kcal/mol
4,SAGGSAGGSAGMKVELSVAPDPATGEPVLLFHFEDFTLALNPNTGAIGVYLKDEVELFELSAGGSAGGSAGG [r17_544_TrMRF],2.03 ± 0.14 kcal/mol
5,SAGGSAGGSAGGSTKTYNAEIDNPNGPKITIPIEYRNEDGESDFEEKAKKFAEEYAKKYSAGGSAGGSAGGS [r4_168_TrMRF],0.547 ± 0.14 kcal/mol
6,SAGEKKKVVIVVHIHIEAESEEDREKALEEARKLAEELARELKEKLGLPEDVKEVVVIVHIHPRSEEEKSAG [r5_436_TrROS_Hall],2.25 ± 0.12 kcal/mol
7,SAGGSAGGSIVFRSPEQAKEWLDNFPPGNEVNIHVQGPDTGQPQEFEIKIPPPKPEYDPDGKPSAGGSAGGS [r12_393_TrROS],-0.169 ± 0.32 kcal/mol
8,SAGKVKATYDPKTGTLTITFNVKKNEKINVKANIKIPEYNATVEKVETNGAKKDNEPVTVKIKLKNLKKSAG [r5_737_TrMRF],1.94 ± 0.54 kcal/mol
9,SAGGSMIELTLTSTVPDGTPASTVPPEVAREQALAYAEAQGLTVVEIRVEFDPEAGTITIPVVTALSAGGSA [r2_237_JUSTAS],1.11 ± 0.12 kcal/mol
10,SAGGMIIIEGMSEEEIKNLIKEAIKKGEKVKKIVIRVNGKLYLITVDAKTKKITVEEIPLEELKKKKSAGGS [r16_481_TrROS_Hall],1.4 ± 0.21 kcal/mol
11,SATETLTVVETRTVRDPAVPGTTTTETRVTEVTRPAPPPPPLSAEELARALAEAGLLERTDDGELKVVLSAG [r14_582_TrROS_Hall],-0.567 ± 0.43 kcal/mol
12,SAGGSAGGSKKAEELAKKLGLEVEIVKVEKKKDGSEVVIVKIKNKDGSELTLVVKDGKVELFPSAGGSAGGS [r12_279_TrROS_Hall],2.24 ± 0.079 kcal/mol
13,SAMVSVTELPDGGVLATFPLPDGHPATAVFDPADLKPSVAYFPNGLRAVLRVTPDGRVELLAVEDVPPASAG [r14_877_TrMRF],0.943 ± 0.052 kcal/mol
14,SAGGSARWFLIRIEFVFGGEPRTFSVLIDVDPGEIEIEIPPELQKKGFQIKDIEIWPLPPEDLKKLSAGGSA [r15_853_TrROS],2.84 ± 0.18 kcal/mol
15,SAGGSAVPAEAKKKVFLKPVKVNIPLPGNYEIVEIDPKTGKIVIKVPGSSKTLVVDLKSGKVYEFGSAGGSA [r15_452_TrMRF],1.51 ± 0.14 kcal/mol
16,SAGGSAGGSTVTIEIPGFKTPEEIAKAIAEKTGKKVKEVKVEKDKKNKTYTITVTVDGKEITFSAGGSAGGS [r12_935_TrROS_Hall],0.805 ± 0.15 kcal/mol
17,SAGGSAGGSDIPIEIVDVEHTDNMISVIIKGPDGNYFVINFQFNPGNGKFNVNISIIPPEDLKSAGGSAGGS [r20_70_TrROS],3.55 ± 0.26 kcal/mol
18,SAGKKLFIKVKIRVKKKVKLKDGKTVEKEKELTLLIEAESEEEALEAAKKLAEELGLEIEKVEIFKAPSAGG [r19_176_TrROS_Hall],3.09 ± 0.27 kcal/mol
19,SAGGSAGGSAGGGKSITKVYTLPNGGKAVAVYNPETGKVEVYFFKPNGKLLEKKTFKAKSAGGSAGGSAGGS [r10_1044_TrMRF],2.51 ± 0.11 kcal/mol
20,SAGGSAGGSAMIVTEEGNTITITTLTNLTFPTTGATSTATTTTTITLPPTPLFPVPRTDNSLSAGGSAGGSA [r18_501_JUSTAS],0.44 ± 0.24 kcal/mol
21,SAMYVRITVTFETPDGTRTVTIEIPPSEVEAGKPLSEEELKALAEEIAAKDPNATITEITIERFPESLESAG [r14_373_JUSTAS],3.99 ± 0.075 kcal/mol
